One block for each substance: values may come before it.
Key:
[1] = target: gors2_rat Gorasp2 (UniProt Q9R064)
[2] = target: gors2_rat Gorasp2 (UniProt Q9R064); remark: listed apart in the source
[3] = target: gors2_rat Gorasp2 (UniProt Q9R064); remark: listed apart in the source
[4] = target: gors2_rat Gorasp2 (UniProt Q9R064); remark: listed apart in the source
[5] = target: gors2_rat Gorasp2 (UniProt Q9R064); remark: listed apart in the source
[6] = target: gors2_rat Gorasp2 (UniProt Q9R064); remark: listed apart in the source
[7] = target: mmp14_human MMP14 (UniProt P50281)

Substance: Matrix metalloproteinase-14 (Homo sapiens) (from UniProt P50281) R576A
- effect of a mutation on the interaction [2]: decreasing interaction

Substance: Matrix metalloproteinase-14 (Homo sapiens) (from UniProt P50281) L572A
- effect of a mutation on the interaction [1]: disrupting interaction

Substance: Matrix metalloproteinase-15 (Homo sapiens), P51511 L659A
- effect of a mutation on the interaction [4]: decreasing interaction

Substance: Matrix metalloproteinase-14 (Homo sapiens) (from UniProt P50281) G566A
- effect of a mutation on the interaction [3]: decreasing interaction

Substance: Matrix metalloproteinase-15 (Homo sapiens), P51511 L658A
- effect of a mutation on the interaction [4]: decreasing interaction

Substance: Matrix metalloproteinase-14 (Homo sapiens) (from UniProt P50281) S577A
- effect of a mutation on the interaction [5]: decreasing interaction

Substance: Matrix metalloproteinase-14 (Homo sapiens) (from UniProt P50281) R569A
- effect of a mutation on the interaction [6]: decreasing interaction

Substance: Matrix metalloproteinase-14 (Homo sapiens) (from UniProt P50281) L579A
- effect of a mutation on the interaction [5]: decreasing interaction

Substance: Matrix metalloproteinase-14 (Homo sapiens) (from UniProt P50281) L578A
- effect of a mutation on the interaction [5]: decreasing interaction

Substance: Matrix metalloproteinase-14 (Homo sapiens) (from UniProt P50281) L571A
- effect of a mutation on the interaction [1]: disrupting interaction

Continued, values first:

- effect of a mutation on the interaction [1]: disrupting interaction
Substance: Matrix metalloproteinase-14 (Homo sapiens) (from UniProt P50281) Y573A

- effect of a mutation on the interaction [2]: decreasing interaction
Substance: Matrix metalloproteinase-14 (Homo sapiens) (from UniProt P50281) C574A

- effect of a mutation on the interaction [3]: decreasing interaction
Substance: Matrix metalloproteinase-14 (Homo sapiens) (from UniProt P50281) T567A

- effect of a mutation on the interaction [2]: decreasing interaction
Substance: Matrix metalloproteinase-14 (Homo sapiens) (from UniProt P50281) Q575A

- effect of a mutation on the interaction [4]: decreasing interaction
Substance: Matrix metalloproteinase-15 (Homo sapiens), P51511 Y660A

- effect of a mutation on the interaction [6]: decreasing interaction
Substance: Matrix metalloproteinase-14 (Homo sapiens) (from UniProt P50281) R570A

- effect of a mutation on the interaction [6]: decreasing interaction
Substance: Matrix metalloproteinase-14 (Homo sapiens) (from UniProt P50281) P568A

- effect of a mutation on the interaction [3]: decreasing interaction
Substance: Matrix metalloproteinase-14 (Homo sapiens) (from UniProt P50281) H565A

- effect of a mutation on the interaction [7]: disrupting interaction
Substance: Golgi reassembly-stacking protein 2 (Rattus norvegicus (Rat)) (from UniProt Q9R064) G2A

— IntAct's records for PubMed 20608975
